Results on 4 molecules are retold here after US20210388105A1 (ELPISCIENCE SUZHOU BIOPHARMA, published 2021).

In general, EC50 refers to the concentration needed to bring the measured effect to its halfway point. The low end stands for a more potent agent, the high end for a less potent agent.

In assay [1] the target is T1, human CD39 (full length, on cells) (human, UniProt P49961 1-510).
T1 construct: Recombinant on CHOK1-hCD39 cells or natural on SK-MEL-28, SK-MEL-5 and MOLP-8 cells; the cell line is named under assay; also called hCD39; ENTPD1
T1 sequence: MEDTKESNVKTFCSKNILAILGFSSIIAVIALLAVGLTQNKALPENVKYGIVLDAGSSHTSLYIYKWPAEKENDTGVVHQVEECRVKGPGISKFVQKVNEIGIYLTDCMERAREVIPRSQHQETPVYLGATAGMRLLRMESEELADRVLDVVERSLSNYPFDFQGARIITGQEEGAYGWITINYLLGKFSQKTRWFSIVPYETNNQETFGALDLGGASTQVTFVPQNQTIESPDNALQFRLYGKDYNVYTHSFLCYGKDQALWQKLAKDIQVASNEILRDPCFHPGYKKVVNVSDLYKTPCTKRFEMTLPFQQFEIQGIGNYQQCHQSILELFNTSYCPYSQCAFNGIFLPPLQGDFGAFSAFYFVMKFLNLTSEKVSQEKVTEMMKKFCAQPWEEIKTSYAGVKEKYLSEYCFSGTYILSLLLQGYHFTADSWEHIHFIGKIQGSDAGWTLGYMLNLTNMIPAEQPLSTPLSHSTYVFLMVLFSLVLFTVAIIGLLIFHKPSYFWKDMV
As to the kind of experiment: FACS, SK-MEL-5 cells. As for the experimental part: (§1) Similarly, human CD39 expressing cells SK-MEL-5, SK-MEL-28 or MOLP-8, were incubated with a gradient concentration of anti-CD39 antibodies for 30 minutes at 4° C. Cells were washed 3 times using FACS buffer and next incubated with fluorescence labelled secondary antibody (goat-anti-mouse IgG or goat anti-human IgG) for 30 minutes at 4° C. Cells were washed 3 times and then re-suspended in FACS buffer and analyzed by flow cytometry analysis on BD Celesta. Data plotted and analyzed using GraphPad Prism 8.02.
(§2) Binding affinity of the humanized antibodies hu23.H5L5 and hu14.H1L1 were tested on different cells by FACS following the similar method as described in Example 3.2.
(§3) Reference antibodies T895 and 1394 were tested in parallel as control antibodies. As shown in FIG. 12 and summarized in Table 23, both antibodies hu23.H5L5 and hu14.H1L1 bound to human and cynomolgus CD39 expressing cells in a dose-dependent manner and with similar affinity by EC₅₀ at a sub-nanomolar or nanomolar level. Neither of them recognized mouse CD39 in the FACS study. Maximum signal (mean fluorescence intensity, MFI) differed between cells for each antibody may result from their different expression level.
Background: A flow cytometer gives signals particle by particle.

The target in assay [2] is T1, human CD39 (full length, on cells). Description: cell-based or functional assay.
Assay [3] shares this target. As to the kind of experiment: FACS, MOLP-8 cells. As for the experimental part:
as §1, §2, §3

Assay [4] has the same target. As to the kind of experiment: cell-based or functional assay. This is another data set of the same source.
The target in assay [5] is T2, mouse CD39 (full length, on CHOK1-mCD39 cells) (mouse, UniProt P55772 1-510).
T2 construct: whole, on cells
T2 sequence (looked up): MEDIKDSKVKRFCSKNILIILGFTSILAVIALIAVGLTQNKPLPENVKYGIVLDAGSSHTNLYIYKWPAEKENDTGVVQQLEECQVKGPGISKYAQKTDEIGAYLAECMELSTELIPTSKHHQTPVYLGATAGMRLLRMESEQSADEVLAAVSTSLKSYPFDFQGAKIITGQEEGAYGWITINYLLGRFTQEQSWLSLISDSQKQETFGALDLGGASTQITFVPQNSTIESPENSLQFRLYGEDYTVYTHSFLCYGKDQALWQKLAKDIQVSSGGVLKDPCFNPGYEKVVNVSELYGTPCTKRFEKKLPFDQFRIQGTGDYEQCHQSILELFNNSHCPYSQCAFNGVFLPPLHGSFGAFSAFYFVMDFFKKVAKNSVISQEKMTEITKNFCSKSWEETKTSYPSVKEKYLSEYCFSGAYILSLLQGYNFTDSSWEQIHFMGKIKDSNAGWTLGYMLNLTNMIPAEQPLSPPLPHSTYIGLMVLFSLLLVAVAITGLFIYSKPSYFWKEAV
Description: FACS, CHOK1-mCD39 cells. From the text:
FACS were used to determine binding of the antibodies to cell lines expressing CD39 naturally (SK-MEL-28) or recombinantly (CHOK1-hCD39, CHOK1-cynoCD39, and CHOK1-mCD39), or with cells lacking CD39 expression (CHOK1-blank) as a negative control.
CHOK1-hCD39, CHOK1-cCD39, CHOK1-mCD39 and CHOK1-blank cells were maintained in culture medium according to ATCC procedure. Cells were collected and re-suspended in blocking buffer at a density of 3×10⁶ cells/ml. Cells were transferred to 96 well FACS plates at 100 μl/well (3×10⁵ cells/well), the plates were centrifuged and washed twice with FACS buffer (PBS, 1% FBS, 0.05% Tween-20). 4-folds serial dilution of anti-CD39 antibodies were prepared in FACS buffer starting from 30 μg/ml. Reference antibody 9-8B and mouse/human control IgG were used as positive and negative controls, respectively. Cells were re-suspended in 100 μL/well diluted antibodies, and the plates were incubated at 4° C. for 60 min. […] The plates were washed with FACS buffer, and cells were re-suspended in 100 μL/well of PBS. Cells were then analyzed with FACSVerse™ and mean fluorescence intensity were determined. Full binding curves were generated on the CD39 expressing cells by testing a range of antibody concentrations. Apparent affinity was determined for each antibody using Prism software.

For assay [6], the target named is T1, human CD39 (full length, on cells). Description: FACS competition on CHOK1-hCD39; competitor mAb23-Alexa488. As for the experimental part: Anti-CD39 antibodies were labeled using Alex488 labeling kit and were diluted in a series of concentrations, before mixing with CHOK1-hCD39 cells to test binding EC₅₀using FACS. The non-labeled antibodies were tested for their blocking efficacy to the labelled ones. Briefly, mononuclear CHOK1-hCD39 cells were prepared to 2×10⁶/ml and plated into 96 well at 50 μl/well, then mixed with antibodies gradients to final volume at 100 μl, and then equal volume of Alex488 label antibodies were added at two folds EC80 concentration. 96 well plates were incubated at 4° C. for 1 hour, and spun down and washed 3 times with 200 μl FACS buffer. The FACS analysis was performed on FACScelesta machine and data was analyzed by Flowjo software. The blocking percentages were calculated and those having above 80% competition rate were allocated into one epitope group, compared with the non-competing well (Alex488 labeled antibody only).
Based on the competition results, the 4 anti-CD39 hybridoma antibodies (mAb14, mAb19, mAb21, mAb23) can be grouped into 4 different epitope groups, as shown in Table 11.

B1: hu23.H5L5 (antibody, V domains shown)
VH: QVQLVQSGAEVKKPGASVKVSCKASGYNLKDTFLHWVRQAPGQGLEWMGRIDPANGNIKYDPKFQGRVTITADTSANTAYMELISLRSEDTAVYYCANSPYYYGSGYRIFDVWGQGTTVTVSS
VL: QIVLTQSPATLSLSPGERATLSCSAFSSVNYMHWYQQKPGQAPRLLIYTTSNLASGIPTRFSGSGSGTSYTLTISSLEPEDFAVYYCQQRSTYPFTFGQGTKLEIK
notes: humanized c23
Regarding B1, the EC50 amounted to 0.69 nM in assay [1] and 0.14 nM in assay [3]. Besides, the “ATPase activity inhibition IC50 on MOLP-8 cells” value in assay [2] came out at 0.33 nM. In addition, in assay [2], the “ATPase activity inhibition IC50 on SK-MEL-5 cells” value was 0.07 nM.

B2: Antibody T895 (antibody, V domains shown)
VH: EVQLQQSGPELVKPGASVKMSCKASGYTFTDYNMHWVKQSHGRTLEWIGYIVPLNGGSTFNQKFKGRATLTVNTSSRTAYMELRSLTSEDSAAYYCARGGTRFAYWGQGTLVTVSA
VL: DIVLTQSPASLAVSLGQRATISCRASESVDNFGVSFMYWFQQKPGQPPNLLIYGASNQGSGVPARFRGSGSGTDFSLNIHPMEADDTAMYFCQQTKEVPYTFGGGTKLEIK
notes: also called 31895
As to B2, the EC50 is 0.21 nM in assay [1] and 0.11 nM in assay [3]. In addition, the “ATPase activity inhibition IC50 on MOLP-8 cells” value in assay [2] was 0.51 nM. Besides, the “ATPase activity inhibition IC50 on SK-MEL-5 cells” value in assay [2] came out at 0.09 nM.

B3: mAb14 (antibody, V domains shown)
VH: EVKLEESGGGLVQPGGSMKLSCVASGFTFSKYWMNWVRQSPEKGLEWVAEIRLKSNKYGTHYAESVKGRFTISRDDSKNNVYLQMNNLRPEDTGIYYCTTQLDLYWFFDVWGAGTTVTVSS
VL: DIVMTQSPAILSVTPGDRVSLSCRASQSISDYLHWYQQKSHESPRLLIKYASQSISGIPSRFSGSGSGSNFTLSINSVEPEDVGVYFCQNGHSLPLTFGAGTKLELR
notes: mouse hybridoma antibody
As to B3, in assay [4], the “SK-MEL-28 cell based ATPase inhibition % at 10 nM” value came to 57%. In addition, the binding result in assay [5] is “no binding (tested: 30 µg/ml highest concentration)”. Further, the blocking percentage in assay [6] was -26%.

B4: Antibody 9-8B (antibody, V domains shown)
VH: QIQLVQSGPELKKPGETVKISCKASGYTFTHYGMNWVKQAPGKGLKWMGWINTYTGELTYADDFKGRFAFSLETSASTAYLQINNLKNEDTATYFCARRAYYRYDYVMDYWGQGTSVTVSS
VL: DIVMTQSQKFMSTSVGDRVSVTCKASHNVGTNVAWYQQKPGQSPKALIYSASYRYSGVPGRFTGSGSGTDFTLTISNVQSEDLAEYFCHQYNNYPYTFGGGTKLEIK
Consider B4, for which the “SK-MEL-28 cell based ATPase inhibition % at 10 nM” value in assay [4] is 21%. In assay [5], the binding result was “no binding (tested: 30 µg/ml highest concentration)”. The blocking percentage in assay [6] came out at 100%.
